Literature values in paper PMC12086256.

Target: VEGFR1 (Homo sapiens) (UniProt P17948)
Chain of UniProt P17948 (P17948 27-758): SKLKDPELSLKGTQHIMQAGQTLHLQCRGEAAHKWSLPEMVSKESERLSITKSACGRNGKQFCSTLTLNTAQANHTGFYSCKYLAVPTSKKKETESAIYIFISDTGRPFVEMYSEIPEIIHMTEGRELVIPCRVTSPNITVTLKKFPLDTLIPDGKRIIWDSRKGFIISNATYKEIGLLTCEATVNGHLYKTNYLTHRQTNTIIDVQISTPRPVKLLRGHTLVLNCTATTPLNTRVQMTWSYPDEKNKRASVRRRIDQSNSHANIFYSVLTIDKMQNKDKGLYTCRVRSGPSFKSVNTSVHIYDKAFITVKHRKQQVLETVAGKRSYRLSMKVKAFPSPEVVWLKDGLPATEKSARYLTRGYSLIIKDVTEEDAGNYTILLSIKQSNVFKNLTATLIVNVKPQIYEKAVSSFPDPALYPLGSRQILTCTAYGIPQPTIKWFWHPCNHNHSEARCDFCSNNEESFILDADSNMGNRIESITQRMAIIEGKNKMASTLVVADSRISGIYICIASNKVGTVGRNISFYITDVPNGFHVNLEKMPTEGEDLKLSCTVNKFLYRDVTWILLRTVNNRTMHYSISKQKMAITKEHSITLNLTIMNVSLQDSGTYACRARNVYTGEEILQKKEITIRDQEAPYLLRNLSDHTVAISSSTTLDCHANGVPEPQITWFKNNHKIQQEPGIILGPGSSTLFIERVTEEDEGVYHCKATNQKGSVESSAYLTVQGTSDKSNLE

VEGF-B167 (from UniProt P49765)
Kd: 2 nM
